Results from patent US20230203202A1 (DRAGONFLY THERAPEUTICS, published 2023).

Assays:
[1] = biological target: T1, human 5T4 on the cell surface (human, UniProt Q13641 32-420); experiment: flow cytometry on H292 cells (11,000 5T4/cell), fold over background
T1 construct: whole, on cells; also called h5T4; TPBG
T1 sequence (looked up): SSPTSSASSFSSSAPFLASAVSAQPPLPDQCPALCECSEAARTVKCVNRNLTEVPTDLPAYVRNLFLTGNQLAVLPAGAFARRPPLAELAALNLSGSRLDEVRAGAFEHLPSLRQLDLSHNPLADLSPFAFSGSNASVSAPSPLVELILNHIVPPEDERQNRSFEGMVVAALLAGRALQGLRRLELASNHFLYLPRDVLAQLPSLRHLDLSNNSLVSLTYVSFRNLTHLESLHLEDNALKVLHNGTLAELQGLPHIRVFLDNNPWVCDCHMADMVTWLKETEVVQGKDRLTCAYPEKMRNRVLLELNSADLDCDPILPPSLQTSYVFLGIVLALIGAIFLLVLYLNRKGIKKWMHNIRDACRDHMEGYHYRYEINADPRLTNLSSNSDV
Protocol: The KYSE-30 and H292 human cancer cell lines, derived from esophageal squamous cell carcinoma and non-small cell lung carcinoma, respectively, were used. […] After incubation, binding patterns of the TriNKET® and mAb to 5T4+ cells were detected using a fluorophore conjugated anti-human IgG secondary antibody. Cells were analyzed by flow cytometry and fold MFI over secondary-only controls reported.

[2] = biological target: T1, human 5T4 on the cell surface; experiment: cell binding assay on 5T4-expressing tumor cells (cell line not given)
[3] = biological target: T2, human 5T4 (SPR and epitope mapping, construct not stated) (human, UniProt Q13641 32-355, limits assumed); experiment: SPR, h5T4 binding; sample stressed in Tris pH 9, 7 days 40 °C
T2 construct: also called h5T4
T2 sequence (looked up): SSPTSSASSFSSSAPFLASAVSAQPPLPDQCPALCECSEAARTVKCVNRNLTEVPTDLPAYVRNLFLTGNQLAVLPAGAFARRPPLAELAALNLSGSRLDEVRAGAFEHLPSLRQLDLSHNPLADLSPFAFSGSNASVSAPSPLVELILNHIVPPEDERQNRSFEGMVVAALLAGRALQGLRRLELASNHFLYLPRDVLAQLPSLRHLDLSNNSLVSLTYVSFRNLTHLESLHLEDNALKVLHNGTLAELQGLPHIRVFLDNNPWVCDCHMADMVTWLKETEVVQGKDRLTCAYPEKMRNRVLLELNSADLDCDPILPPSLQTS

[4] = biological target: T1, human 5T4 on the cell surface; experiment: flow cytometry on 786-O cells (18,000 5T4 per cell)

B1: AB1310/AB1783-TriNKET® (bispecific antibody, human IgG1, kappa)
chain: DIQLTQSPSSLSASVGDRVTITCRASQSVTTSNYNYMHWFQQKPGKAPKLLIKFASNLESGVPSRFSGSGSGTDFTLTISSLQPEDFATYYCQHSWEIPWTFGCGTKVEIKGGGGSGGGGSGGGGSGGGGSEVQLVESGGGLVKPGGSLRLSCAASRFTFSDFGMHWVRQAPGKCLEWVSYISSGSSTIYYADSVKGRFTISRDNAKNSLYLQMNSLRAEDTAVYYCASSQSYYRGTLDYWGQGTTVTVSSASDKTHTCPPCPAPELLGGPSVFLFPPKPKDTLMISRTPEVTCVVVDVSHEDPEVKFNWYVDGVEVHNAKTKPREEQYNSTYRVVSVLTVLHQDWLNGKEYKCKVSNKALPAPIEKTISKAKGQPREPRVYTLPPCRDELTKNQVSLTCLVKGFYPSDIAVEWESNGQPENNYKTTPPVLVSDGSFTLYSKLTVDKSRWQQGNVFSCSVMHEALHNHYTQKSLSLSPG
heavy: EVQLVESGGGLVKPGGSLRLSCAASGFTFSSYSMNWVRQAPGKGLEWVSSISSSSSYIYYADSVKGRFTISRDNAKNSLYLQMNSLRAEDTAVYYCARGAPIGAAAGWFDPWGQGTLVTVSSASTKGPSVFPLAPSSKSTSGGTAALGCLVKDYFPEPVTVSWNSGALTSGVHTFPAVLQSSGLYSLSSVVTVPSSSLGTQTYICNVNHKPSNTKVDKKVEPKSCDKTHTCPPCPAPELLGGPSVFLFPPKPKDTLMISRTPEVTCVVVDVSHEDPEVKFNWYVDGVEVHNAKTKPREEQYNSTYRVVSVLTVLHQDWLNGKEYKCKVSNKALPAPIEKTISKAKGQPREPQVCTLPPSRDELTENQVSLTCLVKGFYPSDIAVEWESNGQPENNYKTTPPVLDSDGSFFLYSWLTVDKSRWQQGNVFSCSVMHEALHNHYTQKSLSLSPG
light: DIQMTQSPSSVSASVGDRVTITCRASQGISSWLAWYQQKPGKAPKLLIYAASSLQSGVPSRFSGSGSGTDFTLTISSLQPEDFATYYCQQGVSFPRTFGGGTKVEIKRTVAAPSVFIFPPSDEQLKSGTASVVCLLNNFYPREAKVQWKVDNALQSGNSQESVTEQDSKDSTYSLSSTLTLSKADYEKHKVYACEVTHQGLSSPVTKSFNRGEC
notes: also called AB1310-TriNKET®; AB1783 10F10 F3′ LH H(T62S) CHO opt
EC50 (read off the curve) [1]: ~3 nM
EC50 [2]: 5.33 nM
Max Fold Over Background (FOB) [2]: 85 fold over background
koff [3]: 0.0016 s⁻¹
kon [3]: 110000 M⁻¹ s⁻¹
EC50 [4]: 2.7 nM
